Laboratory results published in PMC2659241 (The Journal of Biological Chemistry, 2009).

Molecular target: Recombinant human moesin FERM domain (human, UniProt P26038 2-295)
Assay: cross-linking

Sequence of Recombinant human moesin FERM domain (P26038 2-295): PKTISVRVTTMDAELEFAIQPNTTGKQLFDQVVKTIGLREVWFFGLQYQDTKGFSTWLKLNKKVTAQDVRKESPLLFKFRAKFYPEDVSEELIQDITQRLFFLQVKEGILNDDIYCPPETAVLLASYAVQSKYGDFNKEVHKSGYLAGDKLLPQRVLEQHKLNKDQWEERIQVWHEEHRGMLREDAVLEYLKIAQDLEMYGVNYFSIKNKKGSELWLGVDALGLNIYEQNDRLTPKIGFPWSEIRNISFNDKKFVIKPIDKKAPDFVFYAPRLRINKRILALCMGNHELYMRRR

B1: L-selectin cytoplasmic tail peptide (peptide)
peptide: RRLKKGKKSKRSMNDPY
  stoichiometry N: 1
